How the values were obtained:
[1] = target: T1, hIL-18 receptor (hIL-18Rα and hIL-18Rβ) (human) (UniProt Q13478); assay: cell-based or functional assay
T1 sequence (looked up) 1: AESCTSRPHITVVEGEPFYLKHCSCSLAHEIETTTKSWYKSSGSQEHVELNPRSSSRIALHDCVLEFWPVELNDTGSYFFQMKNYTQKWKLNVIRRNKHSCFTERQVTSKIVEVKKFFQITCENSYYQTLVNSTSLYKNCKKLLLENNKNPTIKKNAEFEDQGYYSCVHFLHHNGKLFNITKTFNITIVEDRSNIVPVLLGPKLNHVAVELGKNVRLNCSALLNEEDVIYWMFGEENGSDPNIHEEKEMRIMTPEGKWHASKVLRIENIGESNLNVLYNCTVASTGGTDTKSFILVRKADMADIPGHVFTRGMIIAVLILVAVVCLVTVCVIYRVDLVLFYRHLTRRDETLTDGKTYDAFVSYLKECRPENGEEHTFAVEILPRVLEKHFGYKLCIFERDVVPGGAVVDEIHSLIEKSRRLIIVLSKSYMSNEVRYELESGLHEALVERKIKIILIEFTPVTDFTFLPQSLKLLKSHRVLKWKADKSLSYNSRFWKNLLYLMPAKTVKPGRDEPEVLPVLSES
T1 sequence (looked up) 2: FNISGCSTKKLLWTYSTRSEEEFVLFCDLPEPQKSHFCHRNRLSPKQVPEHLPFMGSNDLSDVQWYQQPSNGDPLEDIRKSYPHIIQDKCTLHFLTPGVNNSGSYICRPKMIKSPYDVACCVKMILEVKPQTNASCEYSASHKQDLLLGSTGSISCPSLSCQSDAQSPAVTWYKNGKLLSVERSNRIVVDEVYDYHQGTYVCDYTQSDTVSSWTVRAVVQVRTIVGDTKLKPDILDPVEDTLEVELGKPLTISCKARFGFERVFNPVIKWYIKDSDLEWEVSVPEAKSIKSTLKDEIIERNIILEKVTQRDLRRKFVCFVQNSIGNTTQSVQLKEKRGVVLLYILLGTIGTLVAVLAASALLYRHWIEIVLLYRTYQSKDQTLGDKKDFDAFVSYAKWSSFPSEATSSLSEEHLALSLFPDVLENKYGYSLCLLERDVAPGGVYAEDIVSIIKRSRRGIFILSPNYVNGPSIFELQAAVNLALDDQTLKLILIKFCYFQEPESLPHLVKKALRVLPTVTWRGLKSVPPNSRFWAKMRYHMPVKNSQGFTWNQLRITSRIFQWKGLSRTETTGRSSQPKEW

[2] = target: hIL-18BP-hFc (human) (UniProt O95998); assay: cell-based or functional assay
Chain of hIL-18BP-hFc (human) (O95998 31-194 limits assumed): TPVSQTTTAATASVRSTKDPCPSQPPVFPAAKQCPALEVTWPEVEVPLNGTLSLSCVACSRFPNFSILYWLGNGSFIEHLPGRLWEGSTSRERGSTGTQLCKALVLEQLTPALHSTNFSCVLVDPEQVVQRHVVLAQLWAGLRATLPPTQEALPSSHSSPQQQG

Chain of wild-type human IL-18 (Q14116 37-193 limits assumed): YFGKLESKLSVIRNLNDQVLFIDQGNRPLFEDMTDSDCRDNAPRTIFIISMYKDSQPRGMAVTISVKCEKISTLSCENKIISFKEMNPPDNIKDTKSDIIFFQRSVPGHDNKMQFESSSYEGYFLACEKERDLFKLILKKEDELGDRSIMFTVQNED

With “wild-type human IL-18 (from UniProt Q14116 37-193) (ligand)” as the substance, how does the EC50 (nM), PBMC assay (hIFNγ release) [1] read?
Its EC50 (nM), PBMC assay (hIFNγ release) is 0.17 nM.

What about the EC50 (nM), in vitro IL-18 Receptor Mediated Signaling Assay [1] of the same substance?
Its EC50 (nM), in vitro IL-18 Receptor Mediated Signaling Assay is 0.066 nM.

What about the EC50 (nM) + 1 µg/ml hIL-18BP-hFc, in vitro IL-18 Receptor Mediated Signaling Assay [2] of the same substance?
Its EC50 (nM) + 1 µg/ml hIL-18BP-hFc, in vitro IL-18 Receptor Mediated Signaling Assay is 8.2 nM.

What about the EC50 (nM) in the Presence of 1 µg/mL hIL-18BP-hFc, PBMC assay (hIFNγ release) [2] of the same substance?
The EC50 (nM) in the Presence of 1 µg/mL hIL-18BP-hFc, PBMC assay (hIFNγ release) was 5.9 nM.

What about the EC50 Fold Change (+BP/-BP), PBMC assay (hIFNγ release) [2] of the same substance?
The EC50 Fold Change (+BP/-BP), PBMC assay (hIFNγ release) was 34.7 fold.

And the EC50 Fold Change (+BP/-BP), hIL-18 reporter assay [2]?
The EC50 Fold Change (+BP/-BP), hIL-18 reporter assay was 83.3 fold.

Reference: patent US20260092093A1
